Among the data in patent EP1908827A2 are change in I-1 co-precipitated with PP1c (dominant negative PKCα co-expressed, against I-1 + β-gal) and change in I-1 co-precipitated with PP1c (wildtype PKCα co-expressed, against I-1 + β-gal) values, retold here.

The target in experiment [1] is PP1c (type-1 protein phosphatase catalytic subunit, PP1c alpha). The experiment can be described thus: PP1c pull-down from extracts of cardiomyocytes co-infected with Ad-I-1 and AdPKCα dn, I-1 western blot quantified.
Experiment [2] has the same target. The experiment can be described thus: PP1c pull-down from extracts of cardiomyocytes co-infected with Ad-I-1 and AdPKCα wt, I-1 western blot quantified.

As for “Inhibitor-1 (I-1), expressed from adenovirus in neonatal rat cardiomyocyte cultures”, the change in I-1 co-precipitated with PP1c (dominant negative PKCα co-expressed, against I-1 + β-gal) in experiment [1] was more than 70 % increase. For the same substance, the change in I-1 co-precipitated with PP1c (wildtype PKCα co-expressed, against I-1 + β-gal) in experiment [2] amounted to 50 % reduction.
